Source: publication PMC11430298, “Complexes of HMO1 with DNA: Structure and Affinity”

T1: HMO1 (Saccharomyces cerevisiae, UniProt Q03973 1-246)
T1 sequence: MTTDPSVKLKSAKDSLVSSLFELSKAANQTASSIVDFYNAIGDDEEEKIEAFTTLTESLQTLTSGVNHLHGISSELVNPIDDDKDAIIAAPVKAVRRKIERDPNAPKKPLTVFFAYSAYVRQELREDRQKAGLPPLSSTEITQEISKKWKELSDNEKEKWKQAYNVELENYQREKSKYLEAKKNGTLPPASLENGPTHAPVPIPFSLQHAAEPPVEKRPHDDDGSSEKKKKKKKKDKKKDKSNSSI

B1: SO duplex (IFHL site) (dsDNA)
DNA 1: ACTACGCTCTAGGCAGAGTTCACC
DNA 2: GGTGAACTCTGCCTAGAGCGTAGT
B2: RO duplex (randomized sequence) (dsDNA)
DNA 1: CTATCGGCACACTTCACGGCACAC
DNA 2: GTGTGCCGTGAAGTGTGCCGATAG

Target: T1, HMO1
Experiment: EMSA; apparent Kd from Hill fit of free DNA; 6 nM DNA; EMSA: 17 mM HEPES pH 7.6, 2 mM Tris-HCl, 0.8 mM Na3EDTA, 0.11 mM 2-mercaptoethanol, 11 mM NaCl, 1.1% glycerol, 12% sucrose; 6 nM DNA, 10-800 nM HMO1, 30 min at
Details: protein: recombinant, tags: N-terminal His6 (pET15b), blunt

Row | Binder | Kd (label: 5'-Cy3 on strand 2 (S6)) | Kd (label: 5'-Cy3 on strand 1 (S3))
1 | B1 | 62 nM | 
2 | B2 |  | 128 nM
